These results are taken from patent US20260250418A1 (BIOCYTOGEN PHARMACEUTICALS BEIJING, published 2026).

Sequences and labels used below:
T1: human HER4 (hHER4, ACRO Biosystems Inc., Cat #: ER4-H5221), recombinant His-tagged (human, UniProt Q15303 26-649)
T1 construct: Bought protein; not shown: His tag
T1 sequence (looked up): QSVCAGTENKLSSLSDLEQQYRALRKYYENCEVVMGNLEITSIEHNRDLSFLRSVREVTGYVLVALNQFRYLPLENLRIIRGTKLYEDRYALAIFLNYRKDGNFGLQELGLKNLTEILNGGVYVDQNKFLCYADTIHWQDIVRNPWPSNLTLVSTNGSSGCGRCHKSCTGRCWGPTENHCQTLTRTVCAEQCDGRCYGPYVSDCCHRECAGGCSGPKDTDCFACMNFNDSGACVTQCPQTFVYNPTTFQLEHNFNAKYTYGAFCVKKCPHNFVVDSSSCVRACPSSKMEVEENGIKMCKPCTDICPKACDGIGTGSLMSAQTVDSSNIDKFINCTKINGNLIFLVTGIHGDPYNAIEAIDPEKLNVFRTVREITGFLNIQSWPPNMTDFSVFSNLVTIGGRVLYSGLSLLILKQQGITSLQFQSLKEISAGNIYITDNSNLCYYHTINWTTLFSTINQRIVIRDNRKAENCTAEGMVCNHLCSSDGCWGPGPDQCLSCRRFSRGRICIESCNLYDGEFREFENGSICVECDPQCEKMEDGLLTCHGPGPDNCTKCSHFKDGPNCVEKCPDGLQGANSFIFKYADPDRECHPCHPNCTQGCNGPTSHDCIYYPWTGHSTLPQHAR

T2: His-tagged dog HER3 protein (dHER3, SEQ ID NO: 45) (dog, UniProt P21860 20-642 (human entry))
T2 construct: not shown: His tag
T2 chain: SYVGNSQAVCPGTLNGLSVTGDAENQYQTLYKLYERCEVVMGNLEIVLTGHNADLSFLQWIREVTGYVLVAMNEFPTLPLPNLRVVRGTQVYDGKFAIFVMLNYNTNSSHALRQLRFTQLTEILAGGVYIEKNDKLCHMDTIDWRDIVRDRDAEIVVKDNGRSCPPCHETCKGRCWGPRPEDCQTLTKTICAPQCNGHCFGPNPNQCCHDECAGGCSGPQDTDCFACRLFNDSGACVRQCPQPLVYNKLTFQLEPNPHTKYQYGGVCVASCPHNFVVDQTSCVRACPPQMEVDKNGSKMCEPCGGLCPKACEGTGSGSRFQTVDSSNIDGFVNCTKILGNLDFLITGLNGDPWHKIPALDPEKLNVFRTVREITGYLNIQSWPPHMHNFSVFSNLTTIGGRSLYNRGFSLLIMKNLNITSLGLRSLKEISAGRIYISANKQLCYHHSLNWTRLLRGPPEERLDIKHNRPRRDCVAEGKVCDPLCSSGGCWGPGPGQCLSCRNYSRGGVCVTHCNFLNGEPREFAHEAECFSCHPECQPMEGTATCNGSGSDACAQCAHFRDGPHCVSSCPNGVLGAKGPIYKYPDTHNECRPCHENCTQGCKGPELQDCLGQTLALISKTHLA

B1: anti-HER3 antibody 3G6 (antibody, V domains shown)
VH: QVQLVQSGPVLVKPTETLTLTCTVSGFSLSNIRMGVSWIRQPPGKALEWLAHIFSNDDKSYSTSLKSRLTISKDTSKSQVVLTMTNVDPVDTATYYCTRMRYSGGPFDYWGQGTLVTVSS
VL: not shown
notes: common light chain
B2: anti-HER3 antibody 1B2 (antibody, V domains shown)
VH: B1 VH with G26T, I32A, T63P, S78T, V87M, T98S, T114S
VL: not shown
notes: common light chain
B3: anti-HER3 antibody 3E1 (antibody, V domains shown)
VH: B1 VH with Q1E, V12A, T63P, S67N, N86T, V87M, V90M, R101K
VL: not shown
notes: common light chain
B4: anti-HER3 antibody 1C5 (antibody, V domains shown)
VH: QVQLVESGGGVVQPGKSLRLSCAASGFTFSRSGMHWVRQAPGKGLEWVALISFDGSNKYYADSVKGRFTISRDNSKNTLNLQMNSLRAEDTAVYYCAKGGFGVVIYDAFDIWGHGTMVTVSS
VL: not shown
notes: common light chain

Changes are numbered by the printed parent chain.

One assay deals with T3, human EGFR (hEGFR, ACRO Biosystems Inc., Cat #: EGR-H5222), recombinant His-tagged (human, UniProt P00533 25-645).
T3 construct: Bought protein; not shown: His tag
Briefly: SPR, Ab captured on Protein A. Here is the method:
(§1) The cross binding activities of anti-HER3 antibodies to HER family proteins were determined by surface plasmon resonance (SPR) using Biacore (Biacore, INC, Piscataway N.J.) 8K biosensor equipped with pre-immobilized Protein A sensor chips.
(§2) Purified anti-HER3 antibodies were diluted to 2 μg/mL and then injected into the Biacore 8K biosensor at 10 μL/min for about 50 seconds to achieve a desired protein density (e.g., about 200 response units (RU)). […] The association phase lasted for 180 s and the dissociation phase lasted 400 s followed by a regeneration step with Glycine (pH 2.0, 30 μL/min for 30 seconds). For isotype control (ISO), an antibody targeting an irrelevant target protein was used.
B1: the binding result was “no binding (tested: 400 nM)”.
Same read-out and setting: the value for B2 was “no binding (tested: 400 nM)”.
For B3, the binding result is given as “no binding (tested: 400 nM)”.
With B4, the binding result was “no binding (tested: 400 nM)”.

The target in the next assay is T1, human HER4 (hHER4, ACRO Biosystems …). Briefly: SPR, Ab captured on Protein A. As for the experimental part: as §1, §2
Take B1: the binding result is on record as “no binding (tested: 400 nM)”.
In the case of B2, the binding result was “no binding (tested: 400 nM)”.
The same measure, in the same setting: the value for B3 was “no binding (tested: 400 nM)”.
As for B4, the binding result was “no binding (tested: 400 nM)”.

The next assay has as its target T4, human HER2 (hHER2, ACRO Biosystems Inc., Cat #: HE2-H5225), recombinant His-tagged (human, UniProt P04626 23-652).
T4 construct: Bought protein; not shown: His tag
Description: SPR, Ab captured on Protein A. As for the experimental part: as §1, §2
Turning to B1, the binding result was “no binding (tested: 400 nM)”.
Still for that read-out and setting: the value for B2 was “no binding (tested: 400 nM)”.
The same measure, in the same setting: the value for B3 was “no binding (tested: 400 nM)”; that for B4 was “no binding (tested: 400 nM)”.

The target of the next assay is T2, His-tagged dog HER3 protein (dHER3, SEQ …). Briefly: SPR, Ab captured on Protein A. Here is the method: (§3) Purified anti-HER3 antibodies was captured on the Protein A chip (Series S Sensor Chip Protein A) for the detection. […] For ISO control, an antibody targeting an irrelevant target protein was used. The flow rate was 30 μL/min, the binding and dissociation time were set to 180 s and 400 s, respectively. The chip was regenerated after the last injection of each titration with a glycine solution (pH 2.0) at 30 μL/min for 30 seconds.
(§4) As a person of ordinary skill in the art would understand, the same method with appropriate adjustments for parameters (e.g., antibody concentration) was performed for each tested antibody.
B1 displayed a Kd of 146 nM, a koff of 0.00809 s⁻¹ and a kon of 55500 M⁻¹ s⁻¹.
For B2, in that order: 61.8 nM, 0.00223 s⁻¹ and 36100 M⁻¹ s⁻¹.
B3 had a Kd of 50.4 nM, a koff of 0.00288 s⁻¹ and a kon of 57100 M⁻¹ s⁻¹.
Take B4: the Kd turned out to be 33.4 nM, the koff was determined as 0.000418 s⁻¹ and the kon was 12500 M⁻¹ s⁻¹.

Another assay addresses T5, His-tagged monkey HER3 protein (fasHER3, Sino Biological, Inc., Cat #: 90043-K08H) (monkey).
T5 construct: Bought protein
Description: SPR, Ab captured on Protein A. Here is the method:
as §3, §4
In turn, B1 had a Kd of 50.9 nM, a koff of 0.00834 s⁻¹ and a kon of 164000 M⁻¹ s⁻¹.
In turn, B2 had a Kd of 22.3 nM, a koff of 0.00224 s⁻¹ and a kon of 100000 M⁻¹ s⁻¹.
The matching figures for B3: 19.1 nM, 0.00289 s⁻¹ and 152000 M⁻¹ s⁻¹.
The matching figures for B4: 31.7 nM, 0.000582 s⁻¹ and 18400 M⁻¹ s⁻¹.

A further assay deals with T6, His-tagged human HER3 protein (hHER3, ACRO Biosystems Inc., Cat #: ER3-H5223) (human, UniProt P21860 20-643).
T6 construct: Bought protein; also called hHER3-His; not shown: His tag
Description: SPR, Ab captured on Protein A. As for the experimental part: as §3, §4
In turn, B1 registered a Kd of 34.8 nM, a koff of 0.0091 s⁻¹ and a kon of 261000 M⁻¹ s⁻¹.
The matching figures for B2: 13.3 nM, 0.00239 s⁻¹ and 179000 M⁻¹ s⁻¹.
The matching figures for B3: 11.5 nM, 0.00319 s⁻¹ and 277000 M⁻¹ s⁻¹.
For B4, in that order: 30 nM, 0.000637 s⁻¹ and 21200 M⁻¹ s⁻¹.
